Test results as given in US20190270826A1 (Janssen / Centocor, published 2019).

Key:
[1] = molecular target: T1, human IL1RAP ECD displayed on HEK-293F cells (pDisplay) (human, UniProt Q9NPH3 21-367); test: MSD cell binding, HEK-293F Human (clone HE2) cells displaying human IL1RAP ECD
T1 construct: also called Human clone HE2 IL1RAP FL-ECD cell line
T1 sequence: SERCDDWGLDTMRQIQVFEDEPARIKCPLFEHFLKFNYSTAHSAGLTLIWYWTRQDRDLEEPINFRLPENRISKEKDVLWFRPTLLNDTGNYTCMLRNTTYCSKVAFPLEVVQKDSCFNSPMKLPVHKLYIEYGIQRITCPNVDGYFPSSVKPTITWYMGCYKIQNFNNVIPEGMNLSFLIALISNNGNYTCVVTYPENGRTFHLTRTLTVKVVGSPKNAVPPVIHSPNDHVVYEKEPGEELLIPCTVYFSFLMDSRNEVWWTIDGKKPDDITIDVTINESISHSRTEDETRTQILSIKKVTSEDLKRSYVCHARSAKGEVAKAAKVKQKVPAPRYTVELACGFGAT
Description: (§1) Cells were immobilized and IL1RAP antibody samples were assayed in triplicate. Briefly, expression supernatants of purified IL1RAP antibodies were normalized to 10 μg/mL. 5000 cells per well were plated into a 384 well plate (MA6000, cat. L21XB, MSD) and allowed to adhere for 2 hr. Cells were then blocked with 20% FBS in PBS (Gibco) for 15 mins. Antibody supernatants were then added and left at RT for 1 hr. Cells were washed 3 times with PBS and a ruthenium labeled secondary antibody (Mesoscale Discovery) was then added at 2 μg/mL and incubated for 1 hour at room temperature. A further washing step was then applied and 35 μL per well of 2×MSD Read buffer T (surfactant free) was then added and incubated for 5-30 minutes for detection. Plates were then read using Sector Imager 2400 (MSD). Data was normalized to controls and graphed using GraphPad Prism Version 5. A positive binder was determined to be a hit with a signal 3× greater than parental cell line background.
(§2) The MSD cell binding assay described in Example 4 was used to assess IL1RAP binding.

[2] = molecular target: T2, human IL1RAP on cells (endogenous) (human, UniProt Q9NPH3 21-570); test: cell-based or functional assay
T2 sequence (looked up): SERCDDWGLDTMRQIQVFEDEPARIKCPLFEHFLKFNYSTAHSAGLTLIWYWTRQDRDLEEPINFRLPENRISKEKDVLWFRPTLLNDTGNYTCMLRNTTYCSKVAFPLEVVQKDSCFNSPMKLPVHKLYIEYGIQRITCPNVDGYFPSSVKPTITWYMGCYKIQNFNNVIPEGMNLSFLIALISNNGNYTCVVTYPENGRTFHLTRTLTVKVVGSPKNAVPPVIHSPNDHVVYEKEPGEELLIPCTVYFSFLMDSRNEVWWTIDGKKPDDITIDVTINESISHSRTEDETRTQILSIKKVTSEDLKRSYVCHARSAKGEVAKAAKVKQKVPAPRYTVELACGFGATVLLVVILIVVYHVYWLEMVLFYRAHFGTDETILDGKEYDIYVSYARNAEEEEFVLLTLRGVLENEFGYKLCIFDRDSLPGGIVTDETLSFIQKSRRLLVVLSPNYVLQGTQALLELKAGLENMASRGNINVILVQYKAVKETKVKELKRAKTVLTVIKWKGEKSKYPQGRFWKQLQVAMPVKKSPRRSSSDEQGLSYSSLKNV

[3] = molecular target: T2, human IL1RAP on cells (endogenous); test: cell-based or functional assay; remark: listed apart in the source
human FcγRI = molecular target: T3, human FcγRI (human, UniProt P12314 16-292, limits assumed); test: AlphaScreen competition, human FcγRI (n=1); displaced: biotinylated control mAb B21M hIgG1 AlaAla; pH 7.2
T3 construct: GST-tagged, on glutathione acceptor beads; also called FcγRT [sic]
T3 sequence (P12314 16-292 limits assumed): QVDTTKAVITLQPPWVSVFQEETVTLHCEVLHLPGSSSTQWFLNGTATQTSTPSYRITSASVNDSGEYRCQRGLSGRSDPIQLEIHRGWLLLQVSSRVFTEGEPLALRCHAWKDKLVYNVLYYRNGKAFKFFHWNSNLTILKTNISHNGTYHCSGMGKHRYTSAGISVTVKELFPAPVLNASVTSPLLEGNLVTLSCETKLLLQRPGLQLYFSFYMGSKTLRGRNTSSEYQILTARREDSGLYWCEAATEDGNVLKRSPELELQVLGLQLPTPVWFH
Text: Measurements were made using an AlphaScreen™ assay (Amplified Luminescent Proximity Homogeneous Assay (ALPHA), PerkinElmer, Wellesley, Mass.), a bead-based luminescent proximity assay. Laser excitation of a donor bead excites oxygen, which if sufficiently close to the acceptor bead generates a cascade of chemiluminescent events, ultimately leading to fluorescence emission at 520-620 nm.

[4] = molecular target: T2, human IL1RAP on cells (endogenous); test: cell-based or functional assay; remark: listed apart in the source
[5] = molecular target: T4, mouse IL1RAP ECD displayed on HEK-293F cells (pDisplay) (mouse, UniProt Q61730 21-367); test: MSD cell binding, HEK-293F Mouse clone 5 cells displaying mouse IL1RAP ECD
T4 sequence: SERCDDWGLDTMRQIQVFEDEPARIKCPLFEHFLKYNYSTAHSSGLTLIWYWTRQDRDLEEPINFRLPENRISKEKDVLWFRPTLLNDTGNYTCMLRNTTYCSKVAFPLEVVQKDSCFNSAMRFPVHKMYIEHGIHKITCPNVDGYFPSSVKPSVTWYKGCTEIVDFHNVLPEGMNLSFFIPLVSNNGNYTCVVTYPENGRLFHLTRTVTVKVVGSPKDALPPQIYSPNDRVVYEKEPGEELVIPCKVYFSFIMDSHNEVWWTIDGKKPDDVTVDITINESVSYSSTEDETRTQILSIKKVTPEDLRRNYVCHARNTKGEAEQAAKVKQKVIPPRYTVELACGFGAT
Description: as §1, §2

B1: IC3B19 (bispecific antibody, human IgG4 S228P, kappa, lambda, F234A L235A)
heavy 1: EVQLVESGGGLVQPGGSLRLSCAASGFTFNTYAMNWVRQAPGKGLEWVARIRSKYNNYATYYAASVKGRFTISRDDSKNSLYLQMNSLKTEDTAVYYCARHGNFGNSYVSWFAYWGQGTLVTVSSASTKGPSVFPLAPCSRSTSESTAALGCLVKDYFPEPVTVSWNSGALTSGVHTFPAVLQSSGLYSLSSVVTVPSSSLGTKTYTCNVDHKPSNTKVDKRVESKYGPPCPPCPAPEAAGGPSVFLFPPKPKDTLMISRTPEVTCVVVDVSQEDPEVQFNWYVDGVEVHNAKTKPREEQFNSTYRVVSVLTVLHQDWLNGKEYKCKVSNKGLPSSIEKTISKAKGQPREPQVYTLPPSQEEMTKNQVSLTCLVKGFYPSDIAVEWESNGQPENNYKTTPPVLDSDGSFLLYSKLTVDKSRWQEGNVFSCSVMHEALHNHYTQKSLSLSLGK
light 1: QTVVTQEPSLTVSPGGTVTLTCRSSTGAVTTSNYANWVQQKPGQAPRGLIGGTNKRAPGTPARFSGSLLGGKAALTLSGVQPEDEAEYYCALWYSNLWVFGGGTKLTVLGQPKAAPSVTLFPPSSEELQANKATLVCLISDFYPGAVTVAWKADSSPVKAGVETTTPSKQSNNKYAASSYLSLTPEQWKSHRSYSCQVTHEGSTVEKTVAPTECS
heavy 2: not shown
light 2: DIQLTQSPSFLSASVGDRVTITCRASQGISSYLAWYQQKPGKAPKLLIYAASTLQSGVPSRFSGSGSGTEFTLTISSLQPEDFATYYCQQVNSYPLTFGGGTKVEIKRTVAAPSVFIFPPSDEQLKSGTASVVCLLNNFYPREAKVQWKVDNALQSGNSQESVTEQDSKDSTYSLSSTLTLSKADYEKHKVYACEVTHQGLSSPVTKSFNRGEC
notes: IgG4-PAA, Fab arm exchange; also called IAPB57 x CD3B219; IL1RAP x CD3
[1]
  EC50 (read off the curve): ~1 µg/mL
[2]
  Average EC50, T-cell mediated cytotoxicity, ALL-SIL: 4 pM
  Average EC50, T-cell mediated cytotoxicity, HPB-ALL: 8 pM
  Average EC50, T-cell mediated cytotoxicity, LAMA-84: 1 pM
  Average EC50, T-cell mediated cytotoxicity, MEG-01: 2 pM
[3]
  mean EC50, T-cell activation, OCI-AML5 cells in whole blood, 48 h: 5.99 nM
  mean EC50, cytotoxicity of OCI-AML5 cells in whole blood, 48 h: 3.13 nM
Human FcγRI
  IC50 (read off the curve): ~90 nM
[4]
  EC50, caspase area/well AUC, Calu-3 with T cells, 72 h: 0.716 nM
  EC50, caspase area/well AUC, DU145 with T cells, 72 h: 0.445 nM
  EC50, caspase area/well AUC, H196 with T cells, 72 h: 0.019 nM
  EC50, caspase area/well AUC, H226 with T cells, 72 h: 0.134 nM
  EC50, caspase area/well AUC, H716 with T cells, 72 h: 4 pM
  EC50, caspase area/well AUC, H1975 with T cells, 72 h: 0.013 nM
  EC50, caspase area/well AUC, H2172 with T cells, 72 h: 0.039 nM
  EC50, caspase area/well AUC, H2228 with T cells, 72 h: 0.043 nM
  EC50, caspase area/well AUC, LNCAP with T cells, 72 h: 0.039 nM
  EC50, caspase area/well AUC, PC3 with T cells, 72 h: 0.102 nM
  EC50, caspase area/well AUC, Panc0213 with T cells, 72 h: 0.192 nM
  EC50, caspase area/well AUC, Panc0327 with T cells, 72 h: 0.181 nM
  EC50, caspase area/well AUC, SKMES-1 with T cells, 72 h: 0.031 nM
  EC50, caspase area/well AUC, SW1271 with T cells, 72 h: 0.078 nM
[5]
  binding result: no binding (tested: 100 µg/mL)
